From PMC5102827 (Oncogene, 2016)

Assays:
[1] = biological target: recombinant NOTCH3 protein (Homo sapiens, UniProt Q9UM47); assay: SPR
[2] = biological target: NOTCH3 on the surface of cells expressing NOTCH3 (Homo sapiens, UniProt Q9UM47); assay: flow cytometry on cells

B1: MOR20358 anti-NOTCH3 NRR antibody (antibody, V domains shown)
VH: QVQLVQSGAEVKKPGSSVKVSCKASGGTFRTYAMHWVRQAPGQGLEWMGGIVPYHGITDYAQKFQGRVTITADESTSTAYMELSSLRSEDTAVYYCARDDYSTYAFAYWGQGTLVTVSS
VL: DIQMTQSPSSLSASVGDRVTITCRASQSIASYLAWYQQKPGKAPKLLIYDASNLQSGVPSRFSGSGSGTDFTLTISSLQPEDFATYYCQQAYKTPYTFGQGTKVEIK
[1]
  Kd: 0.6 nM
[2]
  EC50: 0.14 nM
